Substitutions are numbered along the chain they refer to.

Assay [1] deals with Human EphA2-Fc fusion protein (human EphA2 fused with the Fc portion of a human IgG1) (human) (UniProt P29317). Briefly: single point ELISA: 1 ug goat anti-human Fd capture, biotinylated human EphA2-Fc 300-600 ng/well, neutravidin-HRP.
Assay [2] shares this target. Nature of the assay: single point ELISA: periplasmic Fab captured on 500 ng goat anti-human Fab, biotinylated human EphA2-Fc 300 ng/well, neutravidin-HRP. Background: ELISA stands for enzyme-linked immunosorbent assay.
For assay [3] the target is unchanged. Briefly: SPR (BIAcore 3000), EphA2-Fc amine-coupled to CM5 chip, IgG in solution, 25 C, 1:1 Langmuir fit. In general terms: Surface plasmon resonance follows binding to a sensor surface in real time, without labels.
The target is the same in assay [4]. Briefly: SPR (BIAcore), human IgG1 format on immobilized EphA2-Fc.
The target is the same in assay [5]. Briefly: SPR (BIAcore 3000), EphA2-Fc amine-coupled to CM5 chip, IgG in solution, 25 C, KD = koff/kon.
For assay [6] the target is unchanged. Briefly: single point ELISA: periplasmic Fab captured on 1 ug goat anti-human Fd, biotinylated human EphA2-Fc 300-600 ng/well, neutravidin-HRP.
For assay [7] the target is unchanged. Nature of the assay: second single point ELISA: periplasmic extract of 15 ml culture, 1 ug/well goat anti-human Fd capture, biotinylated EphA2-Fc.
For assay [8] the target is unchanged. Nature of the assay: single point ELISA: periplasmic extract of 45 ml culture, 1 ug/well goat anti-human Fd capture, biotinylated EphA2-Fc.
Assay [9] has the same target. Briefly: SPR (BIAcore 3000), EphA2-Fc amine-coupled to CM5 chip (about 500 RU), IgG in solution, 25 C, KD = koff/kon.
For assay [10] the target is unchanged. Nature of the assay: SPR (BIAcore 3000), EphA2-Fc amine-coupled to CM5 chip (about 500 RU), IgG in solution, 25 C, 1:1 Langmuir fit.
The target in assay [11] is T1, Human EphA2-Fc fusion protein (human EphA2 fused with the Fc portion of a human IgG1) (human, UniProt P29317 24-534, limits assumed).
T1 construct: also called biotinylated human EphA2-Fc; not shown: Fc portion of a human IgG1
The description is as above.

Assay [12] deals with T1, Human EphA2-Fc fusion protein (human …). Nature of the assay: SPR (BIAcore 3000), EphA2-Fc amine-coupled to CM5 chip (about 500 RU), IgG in solution, 25 C, KD = koff/kon.

T1 sequence (P29317 24-534 limits assumed): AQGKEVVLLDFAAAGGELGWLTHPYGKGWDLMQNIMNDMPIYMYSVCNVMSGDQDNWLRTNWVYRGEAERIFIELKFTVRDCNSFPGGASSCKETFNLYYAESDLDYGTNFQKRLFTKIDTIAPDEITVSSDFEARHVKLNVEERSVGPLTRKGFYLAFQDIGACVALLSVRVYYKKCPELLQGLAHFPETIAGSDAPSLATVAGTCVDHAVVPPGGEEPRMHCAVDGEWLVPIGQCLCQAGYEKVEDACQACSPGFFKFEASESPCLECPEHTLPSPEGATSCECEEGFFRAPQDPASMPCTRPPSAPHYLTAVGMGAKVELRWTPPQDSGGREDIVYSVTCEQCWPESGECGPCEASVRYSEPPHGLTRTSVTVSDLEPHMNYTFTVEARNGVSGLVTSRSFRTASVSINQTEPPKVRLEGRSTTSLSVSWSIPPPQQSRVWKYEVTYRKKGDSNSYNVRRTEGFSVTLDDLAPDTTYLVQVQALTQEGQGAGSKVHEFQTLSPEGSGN
Chain of Human EphA2-Fc fusion protein (human EphA2 fused with the Fc portion of a human IgG1) (human) (P29317 24-534 limits assumed): as above

In turn, irrelevant antibody (Example 2) returned an OD450 (background signal) in assay [1] of 0.3 OD450.

B1: Fab clone VH-6H11/VL-8G7 (Fab, from another filing, V domains shown)
VH: EVQLVESGGGLVQPGGSLRLSCAASGFTFSDYSMNWVRQAPGKGLEWVAFIRNKANDYTTEYSASVKGRFTISRDNSKNTLYLQMNSLRAEDTAMYYCARYPRYHAMDSWGQGTLVTVSS
VL: EIVLTQSPATLSVSPGERATLSCRASQSISNNLHWYQQKPGKAPKSLIYYVFQSISGVPSRFSGSGSGTDFTLTINSLEAEDAATYYCQQSNSWPLTFGGGTKVDIK
In [2], B1 displayed an OD450 of 2.5 OD450.

B2: VH-6H11/VL-8G7 as full length human IgG1 (antibody, from another filing, V domains shown)
VH: B1 VH
VL: B1 VL
What is called koff is the rate constant with which the complex falls apart. Read a low koff as a long-lived complex. For orientation: kon means the second-order rate constant of association. The term Kd denotes the concentration at which binding is half-saturated. With B2, in [3], the koff came out at 0.00018 s⁻¹ and the kon was 96000 M⁻¹ s⁻¹. Further, the fold decrease of avidity against parental mAb B233 in assay [4] is 6 fold. The molecule also came in with a Kd in assay [5] of 1.9 nM.

B3: Fab clone VH-2G6/VL-12C8 (Fab, from another filing, V domains shown)
VH: EVQLVESGGGVVRPGGSLRLSCAASGFTVSDYSMNWVRQAPGKGLEWIGFIRNKANDYTTEYSASVKGRFTISRDDSKNTLYLQMNSLKTEDTAVYYCTTYPRYHAMDSWGQGTMVTVSS
VL: AIQLTQSPSSLSASVGDRVTITCRASQSISNNLHWYLQKPGQSPQLLIYYVFQSISGVPSRFSGSGSGTDFTLTISSLQPEDFATYYCQQSNSWPLTFGGGTKLEIK
B3: the OD450 in assay [2] came to 2.8 OD450.

B4: VH-2G6/VL-12C8 as full length human IgG1 (antibody, from another filing, V domains shown)
VH: B3 VH
VL: B3 VL
Regarding B4, in [3], the koff turned out to be 0.00019 s⁻¹ and the association rate constant (kon) was found to be 64000 M⁻¹ s⁻¹. Also, in assay [4], the fold decrease of avidity against parental mAb B233 came to 10 fold. In addition, the Kd in assay [5] amounted to 3 nM.

B5: VH-4H5/VL-4H5 as human IgG1 (antibody, from another filing, V domains shown)
VH: QVQLLESGGGLVQPGGSLRLSCAASGFTFSSYTMSWVRQAPGQALEWMGTISSGGTYTYYPDSVKGRFTISRDNAKNSLYLQMNSLRAEDTAVYYCAREAIFTYWGRGTLVTVSS
VL: DIQLTQSPSSLSASVGDRVTITCKASQDINNYLSWYQQKPGQAPRLLIYRANRLVDGVPDRFSGSGYGTDFTLTINNIESEDAAYYFCLKYDVFPYTFGQGTKVEIK
With B5, the fold increase of avidity against parental mAb EA2 in [4] was determined as 90 fold.

B6: Fab clone 4H5 (VH-4H5/VL-4H5) (Fab, from another filing, V domains shown)
VH: B5 VH
VL: B5 VL
Take B6: in [6], the OD450 was 3 OD450 and the fold signal above background of the irrelevant antibody stood at 10 fold. Also, the [specific OD450/background OD450] ratio in assay [7] turned out to be 30. Besides, the [specific OD450/background OD450] ratio in assay [8] was 23.

B7: Fab "corrected" clone 4H5 (VH-4H5/VL-"corrected" 4H5) (Fab, from another filing, V domains shown)
VH: B5 VH
VL: B5 VL with V93E
Take B7: the [specific OD450/background OD450] ratio in [8] amounted to 11.

B8: VH-4H5/VL-"corrected" 4H5 as human IgG1 (antibody, from another filing, V domains shown)
VH: B5 VH
VL: B5 VL with V93E
B8 showed a Kd in [9] of 1.4 nM. Moreover, the fold increase of avidity against parental mAb EA2 in [4] is 4 fold. Besides, in [10], the koff is 0.00105 s⁻¹ and the kon turned out to be 750000 M⁻¹ s⁻¹.

B9: mAb EA2 (murine anti-human EphA2 monoclonal antibody) (antibody, V domains shown)
VH: DVKLVESGGGLVKPGGSLKLSCAASGFTFSSYTMSWVRQTPEKRLEWVATISSGGTYTYYPDSVKGRFTISRDNAKNTLYLQMSSLKSEDTAMYYCTREAIFTYWGQGTLVTVSA
VL: DIKMTQSPSSMYASLGERVTITCKASQDINNYLSWFQQKPGKSPKTLIYRANRVDGVPSRFSGSGSGQDYSLTISSLEYEDMGIYYCLKYDEFPYTFGGGTKLEIK
In assay [11], B9 returned a koff of 0.00307 s⁻¹ and a kon of 517000 M⁻¹ s⁻¹. This molecule came in with a Kd in assay [12] of 5.94 nM.

Source of the values: patent EP1869192B1 (MedImmune, LLC, dated 2016).
